How the values were obtained:
HeLa Kyoto [1] = experiment: solubility in G1/S (NP-40 vs SDS abundance) (log2 ratio); higher = more soluble; conditions: cell cycle stage: G1/S
HeLa Kyoto [2] = experiment: thermal stability score vs G1/S (z-score of summed log2 fold changes over temperatures); higher = more thermally stable than in G1/S
HeLa Kyoto [3] = experiment: solubility change mitosis vs G1/S (difference of NP-40 vs SDS log2 ratios) (log2 ratio difference); higher = more soluble in mitosis
HeLa Kyoto [4] = experiment: melting temperature (median over replicates), in situ; higher = more thermally stable
[5] = cell cycle stage: early G1 (4.5 h after nocodazole release)
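Throughout, for melting temperature (median over replicates), in situ: HeLa Kyoto cells synchronized by double thymidine or nocodazole block, proteins quantified by TMT10plex mass spectrometry, three independent biological replicates.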
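Throughout, for solubility change mitosis vs G1/S (difference of NP-40 vs SDS log2 ratios): synchronized HeLa Kyoto cells (double thymidine block for G1/S, nocodazole release for mitosis), protein amounts in NP-40 versus SDS lysates quantified by mass spectrometry, three biological replicates.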
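Throughout, for solubility in G1/S (NP-40 vs SDS abundance): HeLa Kyoto cells arrested at G1/S by double thymidine block, proteins quantified by TMT10plex mass spectrometry in mild NP-40 versus SDS extracts, three biological replicates.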
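Throughout, for thermal stability score vs G1/S (z-score of summed log2 fold changes over temperatures): synchronized HeLa Kyoto cells, proteins quantified by TMT10plex mass spectrometry, three biological replicates, mitosis taken 0.5 h after nocodazole release, G1/S directly after double thymidine block.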

Sequence | solubility in G1/S (log2) (HeLa Kyoto [1]) | thermal stability score (HeLa Kyoto [2]; [5]) | thermal stability score (HeLa Kyoto [2]; cell cycle stage: mitosis) | solubility change mitosis (log2) (HeLa Kyoto [3]) | melting temperature (HeLa Kyoto [4]; cell cycle stage: G1/S) [°C] | melting temperature (HeLa Kyoto [4]; cell cycle stage: mitosis) [°C]
MSGGASATGPRRGPPGLEDTTSKKKQKDRANQESKDGDPRKETGSRYVAQAGLEPLASGDPSASASHAAGITGSRHRTRLFFPSSSGSASTPQEEQTKEGACEDPHDLLATPTPELLLDWRQSAEEVIVKLRVGVGPLQLEDVDAAFTDTDCVVRFAGGQQWGGVFYAEIKSSCAKVQTRKGSLLHLTLPKKVPMLTWPSLLVEADEQLCIPPLNSQTCLLGSEENLAPLAGEKAVPPGNDPVSPAMVRSRNPGKDDCAKEEMAVAADAATLVDEPESMVNLAFVKNDSYEKGPDSVVVHVYVKEICRDTSRVLFREQDFTLIFQTRDGNFLRLHPGCGPHTTFRWQVKLRNLIEPEQCTFCFTASRIDICLRKRQSQRWGGLEAPAARVGGAKVAVPTGPTPLDSTPPGGAPHPLTGQEEARAVEKDKSKARSEDTGLDSVATRTPMEHVTPKPETHLASPKPTCMVPPMPHSPVSGDSVEEEEEEEKKVCLPGFTGLVNLGNTCFMNSVIQSLSNTRELRDFFHDRSFEAEINYNNPLGTGGRLAIGFAVLLRALWKGTHHAFQPSKLKAIVASKASQFTGYAQHDAQEFMAFLLDGLHEDLNRIQNKPYTETVDSDGRPDEVVAEEAWQRHKMRNDSFIVDLFQGQYKSKLVCPVCAKVSITFDPFLYLPVPLPQKQKVLPVFYFAREPHSKPIKFLVSVSKENSTASEVLDSLSQSVHVKPENLRLAEVIKNRFHRVFLPSHSLDTVSPSDTLLCFELLSSELAKERVVVLEVQQRPQVPSVPISKCAACQRKQQSEDEKLKRCTRCYRVGYCNQLCQKTHWPDHKGLCRPENIGYPFLVSVPASRLTYARLAQLLEGYARYSVSVFQPPFQPGRMALESQSPGCTTLLSTGSLEAGDSERDPIQPPELQLVTPMAEGDTGLPRVWAAPDRGPVPSTSGISSEMLASGPIEVGSLPAGERVSRPEAAVPGYQHPSEAMNAHTPQFFIYKIDSSNREQRLEDKGDTPLELGDDCSLALVWRNNERLQEFVLVASKELECAEDPGSAGEAARAGHFTLDQCLNLFTRPEVLAPEEAWYCPQCKQHREASKQLLLWRLPNVLIVQLKRFSFRSFIWRDKINDLVEFPVRNLDLSKFCIGQKEEQLPSYDLYAVINHYGGMIGGHYTACARLPNDRSSQRSDVGWRLFDDSTVTTVDESQVVTRYAYVLFYRRRNSPVERPPRAGHSEHHPDLGPAAEAAASQASRIWQELEAEEEPVPEGSGPLGPWGPQDWVGPLPRGPTTPDEGCLRYFVLGTVAALVALVLNVFYPLVSQSRWR [USP19] | -0.0565 | -0.212 | -0.109 | -0.0948 | 51.1 | 51
MGRDTRSRSRSAGRRGRRRQSQSGSRSRSRSHGRRNRRRREDEGRRRRRRRSRERRSDSEEERWQRSGMRSRSPPRPKWHSRDGSSQSDSGEEQSRGQWARRRRRARSWSPSSSASSSASPGRSQSPRAAAAALSQQQSLQERLRLREERKQQEELMKAFETPEEKRARRLAKKEAKERKKREKMGWGEEYMGYTNTDNPFGDNNLLGTFIWNKALEKKGISHLEEKELKERNKRIQEDNRLELQKVKQLRLEREREKAMREQELEMLQREKEAEHFKTWEEQEDNFHLQQAKLRSKIRIRDGRAKPIDLLAKYISAEDDDLAVEMHEPYTFLNGLTVADMEDLLEDIQVYMELEQGKNADFWRDMTTITEDEISKLRKLEASGKGPGERREGVNASVSSDVQSVFKGKTYNQLQVIFQGIEGKIRAGGPNLDMGYWESLLQQLRAHMARARLRERHQDVLRQKLYKLKQEQGVESEPLFPILKQEPQSPSRSLEPEDAAPTPPGPSSEGGPAEAEVDGATPTEGDGDGDGEGEGEGEAVLMEEDLIQQSLDDYDAGRYSPRLLTAHELPLDAHVLEPDEDLQRLQLSRQQLQVTGDASESAEDIFFRRAKEGMGQDEAQFSVEMPLTGKAYLWADKYRPRKPRFFNRVHTGFEWNKYNQTHYDFDNPPPKIVQGYKFNIFYPDLIDKRSTPEYFLEACADNKDFAILRFHAGPPYEDIAFKIVNREWEYSHRHGFRCQFANGIFQLWFHFKRYRYRR [CACTIN] | -0.924 | 0.527 | 0.928 | 0.985 | 47.9 | 50.4
MHRDSCPLDCKVYVGNLGNNGNKTELERAFGYYGPLRSVWVARNPPGFAFVEFEDPRDAADAVRELDGRTLCGCRVRVELSNGEKRSRNRGPPPSWGRRPRDDYRRRSPPPRRRSPRRRSFSRSRSRSLSRDRRRERSLSRERNHKPSRSFSRSRSRSRSNERK [SRSF3] | -0.0567 | -0.84 | -4.46 | 0.503 | 55.3 | 54.2
MAVQESAAQLSMTLKVQEYPTLKVPYETLNKRFRAAQKNIDRETSHVTMVVAELEKTLSGCPAVDSVVSLLDGVVEKLSVLKRKAVESIQAEDESAKLCKRRIEHLKEHSSDQPAAASVWKRKRMDRMMVEHLLRCGYYNTAVKLARQSGIEDLVNIEMFLTAKEVEESLERRETATCLAWCHDNKSRLRKMKSCLEFSLRIQEFIELIRQNKRLDAVRHARKHFSQAEGSQLDEVRQAMGMLAFPPDTHISPYKDLLDPARWRMLIQQFRYDNYRLHQLGNNSVFTLTLQAGLSAIKTPQCYKEDGSSKSPDCPVCSRSLNKLAQPLPMAHCANSRLVCKISGDVMNENNPPMMLPNGYVYGYNSLLSIRQDDKVVCPRTKEVFHFSQAEKVYIM [MAEA] | -0.0777 | -0.838 | -0.615 | -0.0756 | 50.2 | 49.3
MSASAQQLAEELQIFGLDCEEALIEKLVELCVQYGQNEEGMVGELIAFCTSTHKVGLTSEILNSFEHEFLSKRLSKARHSTCKDSGHAGARDIVSIQELIEVEEEEEILLNSYTTPSKGSQKRAISTPETPLTKRSVSTRSPHQLLSPSSFSPSATPSQKYNSRSNRGEVVTSFGLAQGVSWSGRGGAGNISLKVLGCPEALTGSYKSMFQKLPDIREVLTCKIEELGSELKEHYKIEAFTPLLAPAQEPVTLLGQIGCDSNGKLNNKSVILEGDREHSSGAQIPVDLSELKEYSLFPGQVVIMEGINTTGRKLVATKLYEGVPLPFYQPTEEDADFEQSMVLVACGPYTTSDSITYDPLLDLIAVINHDRPDVCILFGPFLDAKHEQVENCLLTSPFEDIFKQCLRTIIEGTRSSGSHLVFVPSLRDVHHEPVYPQPPFSYSDLSREDKKQVQFVSEPCSLSINGVIFGLTSTDLLFHLGAEEISSSSGTSDRFSRILKHILTQRSYYPLYPPQEDMAIDYESFYVYAQLPVTPDVLIIPSELRYFVKDVLGCVCVNPGRLTKGQVGGTFARLYLRRPAADGAERQSPCIAVQVVRI [POLA2] | 0.0737 | 1.44 | 4.66 | -0.155 | 48.8 | 50.2
MPKCPKCNKEVYFAERVTSLGKDWHRPCLKCEKCGKTLTSGGHAEHEGKPYCNHPCYAAMFGPKGFGRGGAESHTFK [CRIP1] | -0.362 | -4.54 | -5.63 | 0.414 | 57.6 | 53.5
MVLLAAAVCTKAGKAIVSRQFVEMTRTRIEGLLAAFPKLMNTGKQHTFVETESVRYVYQPMEKLYMVLITTKNSNILEDLETLRLFSRVIPEYCRALEENEISEHCFDLIFAFDEIVALGYRENVNLAQIRTFTEMDSHEEKVFRAVRETQEREAKAEMRRKAKELQQARRDAERQGKKAPGFGGFGSSAVSGGSTAAMITETIIETDKPKVAPAPARPSGPSKALKLGAKGKEVDNFVDKLKSEGETIMSSSMGKRTSEATKMHAPPINMESVHMKIEEKITLTCGRDGGLQNMELHGMIMLRISDDKYGRIRLHVENEDKKGVQLQTHPNVDKKLFTAESLIGLKNPEKSFPVNSDVGVLKWRLQTTEESFIPLTINCWPSESGNGCDVNIEYELQEDNLELNDVVITIPLPSGVGAPVIGEIDGEYRHDSRRNTLEWCLPVIDAKNKSGSLEFSIAGQPNDFFPVQVSFVSKKNYCNIQVTKVTQVDGNSPVRFSTETTFLVDKYEIL [ARCN1] | -0.104 | 1.07 | 0.0434 | -0.0987 | 51.7 | 51.8
MEEASEGGGNDRVRNLQSEVEGVKNIMTQNVERILARGENLEHLRNKTEDLEATSEHFKTTSQKVARKFWWKNVKMIVLICVIVFIIILFIVLFATGAFS [VAMP8] | -0.136 | -3.17 | -6.62 | 0.136 | 57.8 | 55.5
MASASGAMAKHEQILVLDPPTDLKFKGPFTDVVTTNLKLRNPSDRKVCFKVKTTAPRRYCVRPNSGIIDPGSTVTVSVMLQPFDYDPNEKSKHKFMVQTIFAPPNTSDMEAVWKEAKPDELMDSKLRCVFEMPNENDKLNDMEPSKAVPLNASKQDGPMPKPHSVSLNDTETRKLMEECKRLQGEMMKLSEENRHLRDEGLRLRKVAHSDKPGSTSTASFRDNVTSPLPSLLVVIAAIFIGFFLGKFIL [VAPA] | 0.735 | -1.27 | -1.24 | 0.0815 | 54.1 | 54.5
MATRVEEAARGRGGGAEEATEAGRGGRRRSPRQKFEIGTMEEAGICGLGVKADMLCNSQSNDILQHQGSNCGGTSNKHSLEEDEGSDFITENRNLVSPAYCTQESREEIPGGEARTDPPDGQQDSECNRNKEKTLGKEVLLLMQALNTLSTPEEKLAALCKKYADLLEESRSVQKQMKILQKKQAQIVKEKVHLQSEHSKAILARSKLESLCRELQRHNKTLKEENMQQAREEEERRKEATAHFQITLNEIQAQLEQHDIHNAKLRQENIELGEKLKKLIEQYALREEHIDKVFKHKELQQQLVDAKLQQTTQLIKEADEKHQREREFLLKEATESRHKYEQMKQQEVQLKQQLSLYMDKFEEFQTTMAKSNELFTTFRQEMEKMTKKIKKLEKETIIWRTKWENNNKALLQMAEEKTVRDKEYKALQIKLERLEKLCRALQTERNELNEKVEVLKEQVSIKAAIKAANRDLATPVMQPCTALDSHKELNTSSKRALGAHLEAEPKSQRSAVQKPPSTGSAPAIESVD [TXLNG] | 0.584 | -0.882 | -2.17 | 0.0514 | 52.5 | 52.5

— the supplement of paper PMC5998384
